Source: the supplement of paper PMC9170038

Legend:
[1] = system: MS2 coat protein; experiment: apparent KD of MS2 coat protein; higher = weaker reporter binding; details: Eterna round: R101
Protocol: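 RNA-MaP: designed FMN/MS2 RNA switches (84 nt design region) are transcribed on-chip within common flanks and titrated with SNAP-549-labelled MS2 coat protein (about 1-3000 nM) in 100 mM Tris pH 7.5, 80 mM KCl, 4 mM MgCl2, without or with 200 uM FMN. Median apparent KD per design; activation ratio = KD,OFF / KD,ON.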

[2] = system: MS2 coat protein; experiment: apparent KD of MS2 coat protein, switch OFF state (with FMN for OFF switches, without FMN for ON switches); designed switch direction (-1 OFF switch, 1 ON switch): 1; higher = weaker reporter binding; details: FMN input: 0 or 200 uM; Eterna round: R93 (includes R88 designs)
Procedure, shortened: (§1)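 Values are apparent KD, taken as the median for each design of fits to normalised binding curves from individual clusters. The designed RNA switches were transcribed on-chip from Illumina sequencing clusters and exposed to SNAP-549-labelled MS2 coat protein at twofold increasing amounts from 0.7 or 1.5 nM to 3 µM. Titration used 100 mM Tris-HCl pH 7.5, 80 mM KCl and 4 mM MgCl2, without or with constant ligand.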

[3] = system: MS2 coat protein; experiment: apparent KD of MS2 coat protein, switch ON state; designed switch direction (-1 OFF switch, 1 ON switch): 1; higher = weaker reporter binding; details: FMN input: 0 or 200 uM; Eterna round: R93 (includes R88 designs)
Procedure, shortened: as §1

Sequence | apparent KD of MS2 coat protein ([1]; input ligand: FMN 200 uM) [nM] | apparent KD of MS2 coat protein ([1]; input ligand: none) [nM] | apparent KD of MS2 coat protein [2] [nM] | apparent KD of MS2 coat protein [3] [nM]
AAAGAUUUUUAAGGAUAUGACUCCGAAACGGAGUCAGAAGGUGAGGAUCACCCACCUAGCUCAGCGUCGAAAGACGCUGAGCAA [#SharedSequence ExNG1 - 24] (puzzle (switch architecture): Exclusion NG 1) | 11 | 8.75 | – | –
AAAUAACUCGAAGGAUAUGACCCUCGAGGUGACUAAAAGUCACCUCGAGGGUCAGAAGGUCGAGGAUCACCCGACCUAGUGAAA [#SharedSequence SLExNG1: 8] (puzzle (switch architecture): Small Loop Exclusion NG 1) | 65.9 | 10.3 | – | –
AAAUAACUUGAAGGAUAUGACCCUCGAGGUGACUAAAAGUCACCUCGAGGGUCAGAAGGUCGAGGAUCACCCGACCAAAUAAAU [#SharedSequence SLExNG1: 10] (puzzle (switch architecture): Small Loop Exclusion NG 1) | 11.2 | 10.9 | – | –
AAGUGAAAUCAGAAGGCGUGGACGAAACGUCCACGAGGAUAUGAGGAUCACCCAUAUCAGGUCAGCCUGCAAAGCAGGCUGACC [#SharedSequence - IExNG1: 5-2] (puzzle (switch architecture): Inverted Exclusion NG 1) | 537 | 30.2 | – | –
AAGUGAAAUCAGAAGGCGUGGACGAAACGUCCACGAGGAUAUGAGGAUCACCCAUGUCAGGUCAGCCUGCAAAGCAGGCUGACC [#SharedSequence - IExNG1: 6-1] (puzzle (switch architecture): Inverted Exclusion NG 1) | 259 | 66.2 | – | –
AAUAAAGAUCCUAGAGGAUCACCCUAGGAUAUGAGGCUGCACCUCGGAUAAUCCGAGGUGCAGCCUCAGAAGGAGGAAAUAAAU [#SharedSequence - SLExNG3: 5-2] (puzzle (switch architecture): Small Loop Exclusion NG 3) | 25.8 | 11.6 | – | –
AAUAAUUCUUAAGGAUAUCAGUGGCAAAGCCACUGAGAAGGUGAGGAUCACCCACCUACGUGACGCUGGAAACAGCGUCACGAA [#SharedSequence ExNG1 - 30] (puzzle (switch architecture): Exclusion NG 1) | 23.1 | 16.2 | – | –
AAUUAAAUCCUAGGAUAUCAGUGGCAAAGCCACUGAGAAGGAGGAUCACCCUUUCAAACGUGACGCUGGAAACAGCGUCACGAA [#SharedSequence - ExNG1-18] (puzzle (switch architecture): Exclusion NG 1) | 444 | 699 | – | –
AGACCUGCUCAGAAGGCGGAAACGAGGCUGGAAACAGCCUCGAAUUAAGAUCUUCGAGGAUCACCCGAGGAUAUGAGCAGGUCA [#SharedSequence - IExNG2: 14] (puzzle (switch architecture): Inverted Exclusion NG 2) | 593 | 60.7 | – | –
AGGAGAAAUGUAGGAUAUGGGCGGGCGUAUGGGCAAAGCGCAUACGCCCGCCCAGAAGGACAUGAGGAUCACCCAUGUUUCCCU [#Lowering the energy 2] (puzzle (switch architecture): Small Loop Exclusion NG 1) | 13.8 | 11.7 | – | –
AGUCGGAGCAGAGGAUAUUACAUGAGGAUCACCCAUGUAUGAACCAAUAGCUGGAAACAGCAAUGUAAGAAGGCUGCUCCGACA (puzzle (switch architecture): Exclusion NG 2) | 169 | 12.9 | – | –
AGUGUCAUCGAGAAGGCCUCAACAUGAGGAUCACCCAUUUUGAAAAGUGGGAGGAUAUCGAUGAUACAGCUACGUUUCGUAGCA [salish99_InSLSSNG1_023 #HINGE] (puzzle (switch architecture): Inverted Small Loop Same State NG 1) | 132 | 107 | – | –
AUAUGAUUAAGAGGAUAUAUACAACAUGAGGAUCACCCAUGUACCCAUGUAGUAGAAGGUUUAUUUUUAUAUAAUAAUAUAAUU [AstrosLoopssng1#12] (puzzle (switch architecture): Small Loop Same State NG 1) | 61.4 | 82.9 | – | –
CCAGUUCUGGCAUCCUUAUUACAUGAGGAUCACCCAUGUUGUGAGGAUAUCCCAACCCACGGUCAGGAGAAGGCACAUAGAGGG [Eduscebira] (puzzle (switch architecture): Exclusion NG 3) | 5.37 | 5.89 | – | –
CCGACGACUUAGAAGGCACUCGCAUAAUGCGAGUGAGGAUAUGAGGAUCACCCAUAUCAACGUCGGAGUCACCGAAACGGUGAC [#SharedSequence - IEx NG 4-2] (puzzle (switch architecture): Inverted Exclusion NG 1) | 7.98 | 8.45 | – | –
CCGACGCUUCAGAAGGCACUCGCAUAAUGCGAGUGAGGAUAUGAGGAUCACCCAUAUCAACGUCGGAGUCACCGAAACGGUGAC [#SharedSequence - IEx NG 2-2] (puzzle (switch architecture): Inverted Exclusion NG 1) | 14.4 | 8.54 | – | –

Sequence | apparent KD of MS2 coat protein ([1]; input ligand: FMN 200 uM) [nM] | apparent KD of MS2 coat protein ([1]; input ligand: none) [nM] | apparent KD of MS2 coat protein [2] [nM] | apparent KD of MS2 coat protein [3] [nM]
CGCUAUUACAUGAGGAUCACCCAUGUAUACAUGGGAUUGUCGUAGGAUAUGCAGAAGAUUAAAGUGCAGAAGGACGGUAUAGCG [JR #DistanceClose #Static #StaticP #NP SSNG3 Sub068] (puzzle (switch architecture): Same State NG 3) | 1.03 | 3.46 | – | –
CUGGUUGUCGUAGGAUAUGUAGGAUAUUCCUACAUGAGGAUCACCCAUGUUCGCAUGGAAGAAGGACAGAAGGACGAUGACCAC [salish99_SSNG2_013 #endbits investigation] (puzzle (switch architecture): Same State NG 2) | 9.19 | 1050 | – | –
GGAGAUACAUGAGGAUCACCCAUGUAGGAUAUAUAGUAUAUAUAUGGCGAAAGCCAUAUAUAUAUAUAGAAGGGCGUACACACC [#LOL-14] (puzzle (switch architecture): Small Loop Exclusion NG 3) | 7.28 | 8.22 | – | –
GGAGAUACAUGAGGAUCACCCAUGUAGGAUAUCGGGCCCGUACCCGGCGAAAGCCGGGUACGGGCCGAGAAGGGCGUACACACC [#LOL-4] (puzzle (switch architecture): Small Loop Exclusion NG 3) | 9.27 | 9.3 | – | –
GGAGAUACAUGAGGAUCACCCAUGUAGGAUAUCGGGCCCGUGCCCGGCGAAAGCCGGGCACGGGCCGAGAAGGGCGUACACACC [#LOL-3] (puzzle (switch architecture): Small Loop Exclusion NG 3) | 7.66 | 8.78 | – | –
GGAUAGGACAGAGGAUAUACGUGCUAGAGAUACUAGCAAAAUAUCCUCACAUGAGGAUCACCCAUGUAGAAGGCUGUCCUAUCG (puzzle (switch architecture): Exclusion NG 2) | 20.1 | 5.49 | – | –
GGAUAGGACAGAGGAUAUACGUGCUAGAGAUACUAGCAAAAUUUCCUCACAUGAGGAUCACCCAUGUAGAAGGCGGUCCUAUCG (puzzle (switch architecture): Exclusion NG 2) | 8.8 | 5.37 | – | –
GGAUAGGACAGAGGAUAUACGUGCUAGAGAUACUAGCAAAAUUUCCUCACAUGAGGAUCACCCAUGUAGAAGGCUGUCCUAUCU (puzzle (switch architecture): Exclusion NG 2) | 395 | 18.6 | – | –
GGCAGCUUUCAGAAGGGAGUGCGAUAAUCGCACUCAGGAUAUGAGGAUCACCCAUAUCAUGCUGCCACUGAGGCAAAGCCUCAG [#SharedSequence - IEx NG 3-1] (puzzle (switch architecture): Inverted Exclusion NG 1) | 13.3 | 11 | – | –
GUACAUGAGGAUCACCCAUGUCACAUAACGUCCGAGGAUACCAGAAGGGCAGACGUUACGACGGUGCAGGAUAUGGGCUCCUAA [Beceanbe] (puzzle (switch architecture): Inverted Same State NG 3) | 37.2 | 56.6 | – | –
UGGAGACAUGAGGAUCACCCAUGUGAGAAGAGGCGAGGAUAUCGAAAAAAAAAAAAAAAACGAGAAGGCGCGAGAC [salish99-SS1-010] | – | – | 41.2 | 33.3
UGGAGACAUGAGGAUCACCCAUGUGAGAAGAGGCGAGGAUAUCGAAAGAAAGAAGAGAAACGAGAAGGCGCGAGCU [salish99-SS1-037] | – | – | 36.1 | 22.4
UUACAGCACGGGUAGGAUAUGUAGGGUGGUACAUGAGGAUCACCCAUGUAUCCACCCUUCUAACGGCAGAAGGGCCUGUCGCUGC [Riarve] | – | – | 15.4 | 16.9
UUUAAUUACACGAAGGAUAUCGAUUUUCAGACAUGAGGAUCACCCAUGUAGUAGAUUUCCCUGUUCGAGAAGGUCGCGGGUGAAC [JR_SS002_Sub602] | – | – | 30.3 | 39.3
UUUCAUUACACGAAGGAUAUCGCUUUUCCGACAUGAGGAUCACCCAUGUAGUAGACCUCCCUGUUCGAGAAGGUCGCGGGUGAAC [JR_SS002_Sub604] | – | – | 32.4 | 192
